Measurements from patent publication US20140087995A1 (published 2014).
Each block holds one binder with its values, some of them ahead of it. Numbered stars: 1 amine (or outer) side, 2 acyl side, 3 side chain; on linkers, the order of the positions; unused ones are H or OH. Bridge positions count the residues as written; N and C are the ends. Side chains are listed from the residue outwards. Ends that are not written are not given here. * marks the point of attachment. C20 diacid = O=C(O)CCCCCCCCCCCCCCCCCCC(=O)*; γGlu = O=C(O)[C@H](CCC(=O)[*:2])N[*:1]; AEEA = NCCOCCOCC(=O)O

Target: T1, human calcitonin receptor (human, UniProt P30988 25-474)
T1 sequence (looked up): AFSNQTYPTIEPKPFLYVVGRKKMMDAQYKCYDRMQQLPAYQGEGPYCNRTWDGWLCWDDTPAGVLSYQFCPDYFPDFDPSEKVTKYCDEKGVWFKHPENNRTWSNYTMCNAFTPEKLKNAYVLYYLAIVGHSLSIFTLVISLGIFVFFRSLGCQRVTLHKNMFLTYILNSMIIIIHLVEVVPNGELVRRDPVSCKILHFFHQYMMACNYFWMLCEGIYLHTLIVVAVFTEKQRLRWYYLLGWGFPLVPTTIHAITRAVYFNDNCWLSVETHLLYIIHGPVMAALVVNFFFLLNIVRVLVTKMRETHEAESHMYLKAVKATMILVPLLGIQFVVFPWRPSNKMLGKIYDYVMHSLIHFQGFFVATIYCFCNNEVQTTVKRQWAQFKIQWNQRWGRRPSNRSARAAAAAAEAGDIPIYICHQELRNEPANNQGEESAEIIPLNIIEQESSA
Test: cell-based or functional assay

B2: N^ε1-[2-[2-[2-[[(4S)-4-carboxy-4-(19-carboxynonadecanoylamino)butanoyl]amino]ethoxy]ethoxy]acetyl]-[Ala14,Arg17,Pro21,Pro27,Pro31]-h-amylin (peptide)
peptide: K([AEEA-γGlu-C20 diacid])CNTATCATQRLAAFLRHSSPNFGAIPSSTPVGSNTY-NH2
modifications: disulfide 2-7; N-terminus assumed
SMILES: CC[C@H](C)[C@H](NC(=O)[C@H](C)NC(=O)CNC(=O)[C@H](Cc1ccccc1)NC(=O)[C@H](CC(N)=O)NC(=O)[C@@H]1CCCN1C(=O)[C@H](CO)NC(=O)[C@H](CO)NC(=O)[C@H](Cc1c[nH]cn1)NC(=O)[C@H](CCCNC(=N)N)NC(=O)[C@H](CC(C)C)NC(=O)[C@H](Cc1ccccc1)NC(=O)[C@H](C)NC(=O)[C@H](C)NC(=O)[C@H](CC(C)C)NC(=O)[C@H](CCCNC(=N)N)NC(=O)[C@H](CCC(N)=O)NC(=O)[C@@H](NC(=O)[C@H](C)NC(=O)[C@@H]1CSSC[C@H](NC(=O)[C@@H](N)CCCCNC(=O)COCCOCCNC(=O)CC[C@H](NC(=O)CCCCCCCCCCCCCCCCCCC(=O)O)C(=O)O)C(=O)N[C@@H](CC(N)=O)C(=O)N[C@@H]([C@@H](C)O)C(=O)N[C@@H](C)C(=O)N[C@@H]([C@@H](C)O)C(=O)N1)[C@@H](C)O)C(=O)N1CCC[C@H]1C(=O)N[C@@H](CO)C(=O)N[C@@H](CO)C(=O)N[C@H](C(=O)N1CCC[C@H]1C(=O)N[C@H](C(=O)NCC(=O)N[C@@H](CO)C(=O)N[C@@H](CC(N)=O)C(=O)N[C@H](C(=O)N[C@@H](Cc1ccc(O)cc1)C(N)=O)[C@@H](C)O)C(C)C)[C@@H](C)O
notes: analogue of human amylin; also called compound 72
hCTR funct. EC50: 4.76 nM

B3: N^ε1-[2-[2-[2-[[(4S)-4-carboxy-4-(19-carboxynonadecanoylamino)butanoyl]amino]ethoxy]ethoxy]acetyl]-[Arg17,Pro21,Pro27,Glu35]-h-amylin (peptide)
peptide: K([AEEA-γGlu-C20 diacid])CNTATCATQRLANFLRHSSPNFGAIPSSTNVGSETY-NH2
modifications: disulfide 2-7; N-terminus assumed
SMILES: CC[C@H](C)[C@H](NC(=O)[C@H](C)NC(=O)CNC(=O)[C@H](Cc1ccccc1)NC(=O)[C@H](CC(N)=O)NC(=O)[C@@H]1CCCN1C(=O)[C@H](CO)NC(=O)[C@H](CO)NC(=O)[C@H](Cc1c[nH]cn1)NC(=O)[C@H](CCCNC(=N)N)NC(=O)[C@H](CC(C)C)NC(=O)[C@H](Cc1ccccc1)NC(=O)[C@H](CC(N)=O)NC(=O)[C@H](C)NC(=O)[C@H](CC(C)C)NC(=O)[C@H](CCCNC(=N)N)NC(=O)[C@H](CCC(N)=O)NC(=O)[C@@H](NC(=O)[C@H](C)NC(=O)[C@@H]1CSSC[C@H](NC(=O)[C@@H](N)CCCCNC(=O)COCCOCCNC(=O)CC[C@H](NC(=O)CCCCCCCCCCCCCCCCCCC(=O)O)C(=O)O)C(=O)N[C@@H](CC(N)=O)C(=O)N[C@@H]([C@@H](C)O)C(=O)N[C@@H](C)C(=O)N[C@@H]([C@@H](C)O)C(=O)N1)[C@@H](C)O)C(=O)N1CCC[C@H]1C(=O)N[C@@H](CO)C(=O)N[C@@H](CO)C(=O)N[C@H](C(=O)N[C@@H](CC(N)=O)C(=O)N[C@H](C(=O)NCC(=O)N[C@@H](CO)C(=O)N[C@@H](CCC(=O)O)C(=O)N[C@H](C(=O)N[C@@H](Cc1ccc(O)cc1)C(N)=O)[C@@H](C)O)C(C)C)[C@@H](C)O
notes: analogue of human amylin; also called compound 26
hCTR funct. EC50: 6.34 nM

B4: N^ε1-[2-[2-[2-[[(4S)-4-carboxy-4-(19-carboxynonadecanoylamino)butanoyl]amino]ethoxy]ethoxy]acetyl]-[Arg14,Arg17,Pro21,Pro27,Pro31]-h-amylin (peptide)
peptide: K([AEEA-γGlu-C20 diacid])CNTATCATQRLARFLRHSSPNFGAIPSSTPVGSNTY-NH2
modifications: disulfide 2-7; N-terminus assumed
SMILES: CC[C@H](C)[C@H](NC(=O)[C@H](C)NC(=O)CNC(=O)[C@H](Cc1ccccc1)NC(=O)[C@H](CC(N)=O)NC(=O)[C@@H]1CCCN1C(=O)[C@H](CO)NC(=O)[C@H](CO)NC(=O)[C@H](Cc1c[nH]cn1)NC(=O)[C@H](CCCNC(=N)N)NC(=O)[C@H](CC(C)C)NC(=O)[C@H](Cc1ccccc1)NC(=O)[C@H](CCCNC(=N)N)NC(=O)[C@H](C)NC(=O)[C@H](CC(C)C)NC(=O)[C@H](CCCNC(=N)N)NC(=O)[C@H](CCC(N)=O)NC(=O)[C@@H](NC(=O)[C@H](C)NC(=O)[C@@H]1CSSC[C@H](NC(=O)[C@@H](N)CCCCNC(=O)COCCOCCNC(=O)CC[C@H](NC(=O)CCCCCCCCCCCCCCCCCCC(=O)O)C(=O)O)C(=O)N[C@@H](CC(N)=O)C(=O)N[C@@H]([C@@H](C)O)C(=O)N[C@@H](C)C(=O)N[C@@H]([C@@H](C)O)C(=O)N1)[C@@H](C)O)C(=O)N1CCC[C@H]1C(=O)N[C@@H](CO)C(=O)N[C@@H](CO)C(=O)N[C@H](C(=O)N1CCC[C@H]1C(=O)N[C@H](C(=O)NCC(=O)N[C@@H](CO)C(=O)N[C@@H](CC(N)=O)C(=O)N[C@H](C(=O)N[C@@H](Cc1ccc(O)cc1)C(N)=O)[C@@H](C)O)C(C)C)[C@@H](C)O
notes: analogue of human amylin; also called compound 64
hCTR funct. EC50: 22.9 nM

B6: N^ε1-[2-[2-[2-[[2-[2-[2-[[(4S)-4-carboxy-4-(19-carboxynonadecanoylamino)butanoyl]amino]ethoxy]ethoxy]acetyl]amino]ethoxy]ethoxy]acetyl]-[Arg17,Pro21,Pro27,Glu35 … (peptide)
peptide: K([AEEA-AEEA-γGlu-C20 diacid])CNTATCATQRLANFLRHSSPNFGAIPSSTNVGSETY-NH2
modifications: disulfide 2-7; N-terminus assumed
SMILES: CC[C@H](C)[C@H](NC(=O)[C@H](C)NC(=O)CNC(=O)[C@H](Cc1ccccc1)NC(=O)[C@H](CC(N)=O)NC(=O)[C@@H]1CCCN1C(=O)[C@H](CO)NC(=O)[C@H](CO)NC(=O)[C@H](Cc1c[nH]cn1)NC(=O)[C@H](CCCNC(=N)N)NC(=O)[C@H](CC(C)C)NC(=O)[C@H](Cc1ccccc1)NC(=O)[C@H](CC(N)=O)NC(=O)[C@H](C)NC(=O)[C@H](CC(C)C)NC(=O)[C@H](CCCNC(=N)N)NC(=O)[C@H](CCC(N)=O)NC(=O)[C@@H](NC(=O)[C@H](C)NC(=O)[C@@H]1CSSC[C@H](NC(=O)[C@@H](N)CCCCNC(=O)COCCOCCNC(=O)COCCOCCNC(=O)CC[C@H](NC(=O)CCCCCCCCCCCCCCCCCCC(=O)O)C(=O)O)C(=O)N[C@@H](CC(N)=O)C(=O)N[C@@H]([C@@H](C)O)C(=O)N[C@@H](C)C(=O)N[C@@H]([C@@H](C)O)C(=O)N1)[C@@H](C)O)C(=O)N1CCC[C@H]1C(=O)N[C@@H](CO)C(=O)N[C@@H](CO)C(=O)N[C@H](C(=O)N[C@@H](CC(N)=O)C(=O)N[C@H](C(=O)NCC(=O)N[C@@H](CO)C(=O)N[C@@H](CCC(=O)O)C(=O)N[C@H](C(=O)N[C@@H](Cc1ccc(O)cc1)C(N)=O)[C@@H](C)O)C(C)C)[C@@H](C)O
notes: analogue of human amylin; also called compound 25
hCTR funct. EC50: 10 nM

Now from value to binder:

Ratio hCT/hAmylin funct.: 12.6
hCTR funct. EC50: 1.68 nM
B1: N^α1-[(4S)-4-carboxy-4-(19-carboxynonadecanoylamino)butanoyl]-[His14,Arg17,Pro21,Pro27,Glu35]-h-amylin (peptide)
peptide: {C20 diacid-γGlu}-KCNTATCATQRLAHFLRHSSPNFGAIPSSTNVGSETY-NH2
modifications: disulfide 2-7
SMILES: CC[C@H](C)[C@H](NC(=O)[C@H](C)NC(=O)CNC(=O)[C@H](Cc1ccccc1)NC(=O)[C@H](CC(N)=O)NC(=O)[C@@H]1CCCN1C(=O)[C@H](CO)NC(=O)[C@H](CO)NC(=O)[C@H](Cc1c[nH]cn1)NC(=O)[C@H](CCCNC(=N)N)NC(=O)[C@H](CC(C)C)NC(=O)[C@H](Cc1ccccc1)NC(=O)[C@H](Cc1c[nH]cn1)NC(=O)[C@H](C)NC(=O)[C@H](CC(C)C)NC(=O)[C@H](CCCNC(=N)N)NC(=O)[C@H](CCC(N)=O)NC(=O)[C@@H](NC(=O)[C@H](C)NC(=O)[C@@H]1CSSC[C@H](NC(=O)[C@H](CCCCN)NC(=O)CC[C@H](NC(=O)CCCCCCCCCCCCCCCCCCC(=O)O)C(=O)O)C(=O)N[C@@H](CC(N)=O)C(=O)N[C@@H]([C@@H](C)O)C(=O)N[C@@H](C)C(=O)N[C@@H]([C@@H](C)O)C(=O)N1)[C@@H](C)O)C(=O)N1CCC[C@H]1C(=O)N[C@@H](CO)C(=O)N[C@@H](CO)C(=O)N[C@H](C(=O)N[C@@H](CC(N)=O)C(=O)N[C@H](C(=O)NCC(=O)N[C@@H](CO)C(=O)N[C@@H](CCC(=O)O)C(=O)N[C@H](C(=O)N[C@@H](Cc1ccc(O)cc1)C(N)=O)[C@@H](C)O)C(C)C)[C@@H](C)O
notes: analogue of human amylin; also called compound 30

hCTR funct. EC50: 0.731 nM
B5: N^ε1-[2-[2-[2-[[(4S)-4-carboxy-4-(19-carboxynonadecanoylamino)butanoyl]amino]ethoxy]ethoxy]acetyl]-[Arg17,Pro21,Pro27,Pro28,Pro34]-h-amylin (peptide)
peptide: K([AEEA-γGlu-C20 diacid])CNTATCATQRLANFLRHSSPNFGAIPPSTNVGPNTY-NH2
modifications: disulfide 2-7; N-terminus assumed
SMILES: CC[C@H](C)[C@H](NC(=O)[C@H](C)NC(=O)CNC(=O)[C@H](Cc1ccccc1)NC(=O)[C@H](CC(N)=O)NC(=O)[C@@H]1CCCN1C(=O)[C@H](CO)NC(=O)[C@H](CO)NC(=O)[C@H](Cc1c[nH]cn1)NC(=O)[C@H](CCCNC(=N)N)NC(=O)[C@H](CC(C)C)NC(=O)[C@H](Cc1ccccc1)NC(=O)[C@H](CC(N)=O)NC(=O)[C@H](C)NC(=O)[C@H](CC(C)C)NC(=O)[C@H](CCCNC(=N)N)NC(=O)[C@H](CCC(N)=O)NC(=O)[C@@H](NC(=O)[C@H](C)NC(=O)[C@@H]1CSSC[C@H](NC(=O)[C@@H](N)CCCCNC(=O)COCCOCCNC(=O)CC[C@H](NC(=O)CCCCCCCCCCCCCCCCCCC(=O)O)C(=O)O)C(=O)N[C@@H](CC(N)=O)C(=O)N[C@@H]([C@@H](C)O)C(=O)N[C@@H](C)C(=O)N[C@@H]([C@@H](C)O)C(=O)N1)[C@@H](C)O)C(=O)N1CCC[C@H]1C(=O)N1CCC[C@H]1C(=O)N[C@@H](CO)C(=O)N[C@H](C(=O)N[C@@H](CC(N)=O)C(=O)N[C@H](C(=O)NCC(=O)N1CCC[C@H]1C(=O)N[C@@H](CC(N)=O)C(=O)N[C@H](C(=O)N[C@@H](Cc1ccc(O)cc1)C(N)=O)[C@@H](C)O)C(C)C)[C@@H](C)O
notes: analogue of human amylin; also called compound 55
